For 5 molecules, Peptide quantity (min. copies per cell) (copies per cell) results are on record in patent US20250270327A1.

Assay [1] addresses HLA-E*01 on THP1 and U937 cells (human).
For assay [2] the target is unchanged. Description: mass spectrometry of peptide recovered from immunopurified HLA-E, U937 cells.
For assay [3] the target is unchanged. Description: mass spectrometry of peptide recovered from immunopurified HLA-E, THP1 cells.
For assay [4], the target named is HLA-A*02 on THP1 and U937 cells.

Values joined by “and” are separate entries in the source; they are usually repeats but may differ in a detail not shown here. Equal values may be shown once. Read-outs that look alike come from different tables or passages of the source.

B1: peptide … from Mycobacterium tuberculosis enoyl-ACP reductase (inhA) (peptide)
peptide: RLPAKAPLL
modifications: not checked
B1: the Peptide quantity (min. copies per cell) (copies per cell) in assay [1] is 52 and 22.

B2: peptide … (from the HLA-A*02:01 gene) (peptide)
peptide: VMAPRTLVL
modifications: not checked
With B2, the Peptide quantity (min. copies per cell) (copies per cell) turned out to be 586 in assay [2] and 155 in assay [3].

B3: peptide … (from the HLA-C*07:01 gene) (peptide)
peptide: VMAPRALLL
modifications: not checked
Consider B3, for which the Peptide quantity (min. copies per cell) (copies per cell) in assay [1] came to 35; in assay [4], 0.

B4: peptide … (from the HLA-A*03:01 and HLA-A*31:01 genes) (peptide)
peptide: VMAPRTLLL
modifications: not checked
For the molecule B4, the Peptide quantity (min. copies per cell) (copies per cell) in assay [1] is 302.

B5: peptide … (from the HLA-C*03:03 gene in THP1, the HLA-C*01:02 gene in U937) (peptide)
peptide: VMAPRTLIL
modifications: not checked
As to B5, the Peptide quantity (min. copies per cell) (copies per cell) is 877 in assay [2] and 70 in assay [3].
